The results in this text go back to patent US20070010433A1, “Use of compounds capable of inhibiting the proteolytic processing of semaphorins for prevention, treatment, diagnosis and prognosis of an invasive disease” (SEMA APS, priority 2002, published 2007).

One test deals with PC12E2 cells. The test is described as follows: Neurite outgrowth from PC12E2 cells. The test is classed as cell-based. The following applies: for stimulatory effect on neurite outgrowth: chromatographic fractions of COS-7 conditioned medium, 48 h, compared to negative control (conditioned medium from COS-7 cells without Sema3E proteins). How it is done: Conditioned medium from COS-7 cells stably transfected with full-length Sema3E was collected and fractionated using heparin-sepharose affinity chromatography and consequent size-exlusion fractionation. Fractions containing different isoforms of Sema3E were collected and tested for neuritogenic activity.
PC12E2 cells were plated on poly-L-lysine coated 48-well plates (Costar) (5,000 cells/well) and grown overnight in DME/F12 medium supplemented with 5% foetal calf serum (FCS) and 10% horse serum (HS) at 37 C°, 5% CO2. The chromatographic fractions were dialyzed against DME/F12 medium without serum, protein concentration was adjusted to 10 μg/ml, and diluted 1:1 in conditioned medium collected from non-transfected COS-7 cells grown for 72 h in serum free DME/F12 medium. PC12E2 cells were incubated with samples of different Sema3E fractions for 48 h, afterwards cells were fixed with 11% glutaraldehyde in PBS, washed in PBS and stained with 0.1% crystal violet in 20% methanol, and neurite outgrowth was quantified. […] A neurite outgrowth index was calculated in each experiment dividing the percentage of neurite outgrowth index in the test sample by the percentage of neurite outgrowth index in response to conditioned medium from COS7 cells without Sema3E proteins (negative control). Other controls were: nerve growth factor (NGF), tested at concentration 500 ng/ml (positive control), and non-fractionated conditioned medium from COS-7 cells expressing full-length Sema3E, tested at concentration 50 μg total protein/mi. Activity was defined as the index divided by 2.
The truncated p61 isoform of Sema3E was further expressed as recombinant protein ([…]) in Pichia pastoris as described above, purified using Ni2+ affinity chromatography and tested in a neurite outgrowth assay described above. […] NGF at (positive control, 125 ng/ml) stimulated neurite outgrowth up to 40%.

For another test, the system named is SVEC4-10 cells. The test is described as follows: Endothelial cell motility in blindwell chambers (SVEC4-10). The following applies: for cell-motility-stimulating activity of purified Sema3E isoform fractions: fractions from heparin-sepharose and size-exclusion chromatography of COS-7 medium. The class given is cell-based, mouse. As to the method: 200.000 endothelial mouse lymph nodes SVEC4-10 cells were suspended either in serum free DME/F12 (1:1) medium containing 25 mM Hepes pH 7.4, 0.1% BSA and D-glucose, or conditioned medium collected from cells expressing different Sema3E constructs and were loaded in the top compartments of blindwell chambers. The cells were left to adhere to fibronectin-coated polycarbonate filters within 3 h after seeding, and allowed to migrate through the pores of the filters in the next 3-6 h. Conditioned media from Sema3E or mock transfected 168FARN cells and COS-7 cells transfected with a pcDNA3.1: LacZ were used to examine the effect of the presence of Sema3E in the medium on endothelial cell motility. Migration of SVEC4-10 cells was evaluated after 5 h exposure to the conditioned media with or without Sema3E.
The full-length Sema3E expressed in cells can give a raise to several naturally occurring isoforms of Sema3E, such as for example the truncated p61-Sema3E, a full-length p87-Sema3E, or a dimer p87:p87-Sema3E. The effect of different isoforms of Sema3E on cell motility was studied by using the isoforms purified from conditioned medium collected from tranfected COS-7 cells in the assay described above. The proteins were purified by heparin-sepharose affinity chromatography with following size-exclusion chromatography. All fractions collected from the size-exclusion column were tested for the presence of cell-motility-stimulating activity.
On the technique in general: In gel filtration, larger molecules generally elute earlier.

Test [1] deals with 168FARN mouse tumor cells colonising the lungs. Briefly: Experimental lung metastasis assay with transfected 168FARN cells. The class given is in vivo, Balb/c mice. How it is done: Non-metastatic 168FARN mouse tumor cells were stably transfected with the pcDNA3.1(−)/zeo^R vector encoding a wild-type Sema3E, or mock transfected with the empty vector as described above. Two clones expressing secreted Sema3E, 168FARN: 2s and 168FARN: 14, and a mock transfected clone, 168FARN: 16 were tested for their ability to colonise the lungs in the experimental metastasis assay as described previously (Christensen et al, 1998, Cancer Res 58:1238-44). Briefly, 10^5 cells were injected in the tail vein of female Balb/c mice (age 8-9 weeks). 4 weeks later the lungs were examined for tumor growth.
168FARN cells were stably transfected with constructs encoding 1-560 amino acid fragment of the sequence Sema3E, which corresponds to 61 kDa fragment of Sema3E (p61-Sema3E), a full-length Sema3E mutated on KRRFRR site (Sema3E(−) (+)myc), and a wild-type full-length Sema3E as described above, and stable clones expressing the proteins were injected to mice to induce the experimental metastasis. 10^5 cells of each clone expressing different constructs were injected into the tail vein of female Balb/c mice. After 24 days the lungs were excised, weighted and scored for the presence of visible lung tumors. The p61-Sema3E clones (two groups: clone#1, n=8; clone#5, n=6) were highly aggressive compared to a control group (injected with the cells expressing a secreted alkaline phosphatase (AP)), showing an increase in overall lung weight at about 300%.

Test [2] relates to SVEC4-10 endothelial cells. The test is described as follows: 3D co-culture of SVEC4-10 and 168FARN aggregates in matrigel. The class given is cell-based, mouse. The following applies: co-culture with transfected 168FARN aggregates 3-5 mm apart, 7 days. As to the method: 100,000 cells in 10 μl were aggregated by incubation in a hanging drop at 37° C. for 4 h. The aggregates were moved onto a layer of solidified ECM gel (matrigel) so, that SVEC4-10 aggregates were placed 3-5 mm apart from the aggregates of 168FARN:AP (clone#3, control clone expressing AP), or 168FARN:p61-Sema3E (clone#5, expressing the non-tagged p61-sema3E isoform), or 168FARN:AP-p61-Sema3E (done#5, expressing the AP-tagged p61 isoform). Another layer of matrigel was added on the top of the aggregates. After 7 days of incubation aggregates were examined for invasive growth.

In the case of “NGF: nerve growth factor, positive control [reference compound]”, the “stimulation of neurite outgrowth” value with PC12E2 cells (positive control, 125 ng/ml) is on record as “up to 40%”.

With heparin [reference compound], the “response of SVEC4-10 cells to p61-Sema3E-MH in presence of soluble heparin” value with SVEC4-10 cells (heparin in the medium at 1-10 μg/ml) is “decreased the response of SVEC4-10 cells to the p61 -Sema3E-MH to the basal level”.

B1: p61-Sema3E: 1-560 amino acid fragment of Sema3E, 61 kDa truncated isoform from furin cleavage (SEQ ID NO: 3) (protein, listed as Mus sp.)
chain: MAPAGHILTLLLWGHLLELWTPGHSANPSYPRLRLSHKELLELNRTSIFQSPLGFLDLHTMLLDEYQERLFVGGRDLVYSLNLERVSDGYREIYWPSTAVKVEECIMKGKDANECANYIRVLHHYNRTHLLTCATGAFDPHCAFIRVGHHSEEPLFHLESHRSERGRGRCPFDPNSSFVSTLVGNELFAGLYSDYWGRDSAIFRSMGKLGHIRTEHDDERLLKEPKFVGSYMIPDNEDRDDNKMYFFFTEKALEAENNAHTIYTRVGRLCVNDMGGQRILVNKWSTFLKARLVCSVPGMNGIDTYFDELEDVFLLPTRDPKNPVIFGLFNTTSNIFRGHAVCVYHMSSIREAFNGPYAHKEGPEYHWSLYEGKVPYPRPGSCASKVNGGKYGTTKDYPDDAIRFARIDPLMYQPIKPVHKKPILVKTDGKYNLRQLAVDRVEAEDGQYDVLFIGTDTGIVLKVITIYNQETEWMEEVILEELQIFKDPAPIISMEISSKRQQLYIGSASAVAQVRFHHCDMYGSACADCCLARDPYCAWDGISCSRYYPTGAHAKRRFRR
Regarding B1, in the test with PC12E2 cells, the “stimulatory effect on neurite outgrowth” value was 24-39%. The “cell-motility-stimulating activity of purified Sema3E isoform fractions” value in the test with SVEC4-10 cells is on record as “attractive for SVEC4-10 cells”. For the same molecule, the “increase in overall lung weight” value in test [1] (168FARN clones #1 and #5, 10^5 cells tail vein, 24 days, versus control cells expressing secreted alkaline phosphatase (AP)) was “about 300%”. For the same molecule, in test [1] (168FARN clones, 24 days, compared to Sema3E(−)(+)myc clones #14 and #6), the “lung weight versus groups with mutated Sema3E(−)(+)myc” value is “double increase”. Besides, the “invasive growth of SVEC4-10 endothelial cells” value in test [2] was “invasion of SVEC4-10 endothelial cells was observed”.

B2: Sema3E: wild-type full-length mouse Sema3E (SEQ ID NO: 1) expressed in 168FARN cells (protein, listed as Mus sp.)
chain: MAPAGHILTLLLWGHLLELWTPGHSANPSYPRLRLSHKELLELNRTSIFQSPLGFLDLHTMLLDEYQERLFVGGRDLVYSLNLERVSDGYREIYWPSTAVKVEECIMKGKDANECANYIRVLHHYNRTHLLTCATGAFDPHCAFIRVGHHSEEPLFHLESHRSERGRGRCPFDPNSSFVSTLVGNELFAGLYSDYWGRDSAIFRSMGKLGHIRTEHDDERLLKEPKFVGSYMIPDNEDRDDNKMYFFFTEKALEAENNAHTIYTRVGRLCVNDMGGQRILVNKWSTFLKARLVCSVPGMNGIDTYFDELEDVFLLPTRDPKNPVIFGLFNTTSNIFRGHAVCVYHMSSIREAFNGPYAHKEGPEYHWSLYEGKVPYPRPGSCASKVNGGKYGTTKDYPDDAIRFARIDPLMYQPIKPVHKKPILVKTDGKYNLRQLAVDRVEAEDGQYDVLFIGTDTGIVLKVITIYNQETEWMEEVILEELQIFKDPAPIISMEISSKRQQLYIGSASAVAQVRFHHCDMYGSACADCCLARDPYCAWDGISCSRYYPTGAHAKRRFRRQDVRHGNAAQQCFGQQFVGDALDRTEERLAYGIESNSTLLECTPRSLQAKVIWFYQKGRDVRKEEVKTDDRVVKMDLGLLFLRVRKSDAGTYFCQTVEHNFVHTVRKITLEVVEEHKVEGMFHKDHEEERHHKMPCPPLSGMSQGTKPWYKEFLQLIGYSNFQRVEEYCEKVWCTDKKRKKLKMSPSKWKYANPQEKRLRSKAEHFRLPRHTLLS
Take B2: the “increase of overall weight of the lungs” value in test [1] (10^5 168FARN cells expressing wild-type Sema3E, tail vein, 4 weeks) worked out at 300%. Also, the “lung colonisation / visible lung tumors” value in test [1] (168FARN clones 2s and 14 expressing secreted Sema3E, 4 weeks, versus parental or mock transfected cells) was “colonized the lungs and produced large tumors”.

B3: p87:p87-Sema3E dimer: dimer of full-length p87-Sema3E purified from medium of transfected COS-7 cells (protein, UniProt O15041 1-775, looked up)
chain: MASAGHIITLLLWGYLLELWTGGHTADTTHPRLRLSHKELLNLNRTSIFHSPFGFLDLHTMLLDEYQERLFVGGRDLVYSLSLERISDGYKEIHWPSTALKMEECIMKGKDAGECANYVRVLHHYNRTHLLTCGTGAFDPVCAFIRVGYHLEDPLFHLESPRSERGRGRCPFDPSSSFISTLIGSELFAGLYSDYWSRDAAIFRSMGRLAHIRTEHDDERLLKEPKFVGSYMIPDNEDRDDNKVYFFFTEKALEAENNAHAIYTRVGRLCVNDVGGQRILVNKWSTFLKARLVCSVPGMNGIDTYFDELEDVFLLPTRDHKNPVIFGLFNTTSNIFRGHAICVYHMSSIRAAFNGPYAHKEGPEYHWSVYEGKVPYPRPGSCASKVNGGRYGTTKDYPDDAIRFARSHPLMYQAIKPAHKKPILVKTDGKYNLKQIAVDRVEAEDGQYDVLFIGTDNGIVLKVITIYNQEMESMEEVILEELQIFKDPVPIISMEISSKRQQLYIGSASAVAQVRFHHCDMYGSACADCCLARDPYCAWDGISCSRYYPTGTHAKRRFRRQDVRHGNAAQQCFGQQFVGDALDKTEEHLAYGIENNSTLLECTPRSLQAKVIWFVQKGRETRKEEVKTDDRVVKMDLGLLFLRLHKSDAGTYFCQTVEHSFVHTVRKITLEVVEEEKVEDMFNKDDEEDRHHRMPCPAQSSISQGAKPWYKEFLQLIGYSNFQRVEEYCEKVWCTDRKRKKLKMSPSKWKYANPQEKKLRSKPEHYRLPRHTLDS
modifications: full-length dimer
notes: dimer of full-length p87-Sema3E purified from medium of transfected COS-7 cells
Consider B3, for which the “stimulatory effect on neurite outgrowth” value in the test with PC12E2 cells is listed as 28-35%. In addition, the “cell-motility-stimulating activity of purified Sema3E isoform fractions” value with SVEC4-10 cells is on record as “failes to stimulate motility”.
